Assay [1] has as its target FLAG-tagged AnkG UPA-DD domains without the E35a-encoded peptide (mouse). Kind of assay: co-IP; N2a cells 48 h after transfection with FLAG-UPA-DD minigene plasmids with or without E35a; Pierce IP lysis buffer; anti-FLAG M2 antibody on Protein G magnetic beads; immunoblot with anti-IP3R1. (In general: Immunoblotting shows a protein as a band on a membrane.)
Assay [2] has as its target ankyrin-G (AnkG) lacking the E35a-encoded peptide, endogenous, Ank3 E35a-/- mouse cerebellum (mouse (endogenous in cerebellum)) (UniProt G5E8K5). In words: co-IP; mouse cerebellum whole tissue lysate (500 μg total protein; WT or Ank3 E35a-/-); anti-AnkG antibody (Santa Cruz sc-12719) on Protein G magnetic beads, overnight at 4°C; washed with NT2 buffer; immunoblot with anti-IP3R1 or anti-Na-K ATPase; normalised to the AnkG 190 kDa isoform.

FLAG-tagged AnkG UPA-DD domains without the E35a-encoded peptide (mouse), sequence (G5E8K5 whole entry, the tested form may be a part, canonical isoform): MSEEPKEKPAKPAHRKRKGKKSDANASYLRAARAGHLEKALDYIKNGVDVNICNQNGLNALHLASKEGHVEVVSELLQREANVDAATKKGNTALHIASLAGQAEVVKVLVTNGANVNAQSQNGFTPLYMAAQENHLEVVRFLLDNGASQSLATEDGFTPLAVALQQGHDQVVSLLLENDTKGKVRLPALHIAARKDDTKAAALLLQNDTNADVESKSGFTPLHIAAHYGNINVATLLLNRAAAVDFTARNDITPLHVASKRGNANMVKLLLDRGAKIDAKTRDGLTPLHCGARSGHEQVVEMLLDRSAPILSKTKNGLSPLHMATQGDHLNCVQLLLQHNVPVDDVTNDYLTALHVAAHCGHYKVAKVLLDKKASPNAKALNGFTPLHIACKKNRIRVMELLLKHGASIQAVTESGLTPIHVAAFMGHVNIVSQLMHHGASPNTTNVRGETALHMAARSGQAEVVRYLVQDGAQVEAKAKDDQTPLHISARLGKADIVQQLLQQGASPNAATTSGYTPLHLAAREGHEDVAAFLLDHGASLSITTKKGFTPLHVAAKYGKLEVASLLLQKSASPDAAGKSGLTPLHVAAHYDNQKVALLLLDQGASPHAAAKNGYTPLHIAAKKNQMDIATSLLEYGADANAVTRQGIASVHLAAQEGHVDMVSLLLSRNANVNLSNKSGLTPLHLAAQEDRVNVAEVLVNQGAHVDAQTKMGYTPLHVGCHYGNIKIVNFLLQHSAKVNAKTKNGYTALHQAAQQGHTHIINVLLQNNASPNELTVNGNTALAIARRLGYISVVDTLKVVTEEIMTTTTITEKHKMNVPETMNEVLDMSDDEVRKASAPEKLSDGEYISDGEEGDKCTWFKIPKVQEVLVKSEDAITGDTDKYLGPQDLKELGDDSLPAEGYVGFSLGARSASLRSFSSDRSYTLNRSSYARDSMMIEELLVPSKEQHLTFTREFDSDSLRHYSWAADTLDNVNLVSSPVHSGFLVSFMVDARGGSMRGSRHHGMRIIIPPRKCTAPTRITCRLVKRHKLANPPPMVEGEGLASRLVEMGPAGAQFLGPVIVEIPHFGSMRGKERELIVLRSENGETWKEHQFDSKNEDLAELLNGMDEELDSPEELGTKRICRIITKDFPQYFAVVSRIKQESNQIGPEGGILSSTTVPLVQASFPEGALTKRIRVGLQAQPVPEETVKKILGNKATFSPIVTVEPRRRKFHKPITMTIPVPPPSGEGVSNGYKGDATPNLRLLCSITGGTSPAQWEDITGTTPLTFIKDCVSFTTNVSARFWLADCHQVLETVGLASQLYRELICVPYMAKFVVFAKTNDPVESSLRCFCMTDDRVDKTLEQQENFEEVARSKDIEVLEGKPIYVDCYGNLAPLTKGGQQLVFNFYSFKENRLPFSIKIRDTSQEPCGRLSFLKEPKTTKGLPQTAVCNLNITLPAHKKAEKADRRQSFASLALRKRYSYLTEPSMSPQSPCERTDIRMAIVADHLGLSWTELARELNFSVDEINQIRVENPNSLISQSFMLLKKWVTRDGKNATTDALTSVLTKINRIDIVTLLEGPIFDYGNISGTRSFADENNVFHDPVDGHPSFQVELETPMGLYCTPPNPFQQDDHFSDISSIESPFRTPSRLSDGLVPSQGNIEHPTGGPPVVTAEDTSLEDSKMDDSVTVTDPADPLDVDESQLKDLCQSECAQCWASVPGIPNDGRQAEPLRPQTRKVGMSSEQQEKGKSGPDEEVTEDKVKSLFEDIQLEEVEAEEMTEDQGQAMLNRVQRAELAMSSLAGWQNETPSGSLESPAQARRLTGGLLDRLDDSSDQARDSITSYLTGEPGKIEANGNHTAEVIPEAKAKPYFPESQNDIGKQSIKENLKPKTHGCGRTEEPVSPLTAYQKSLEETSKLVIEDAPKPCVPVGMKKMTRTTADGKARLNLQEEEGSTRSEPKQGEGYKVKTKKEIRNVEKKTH

“type 1 inositol trisphosphate receptor (InsP3R1), endogenous, N2a cells (from UniProt P11881 1-2749) (natural protein)”: in assay [1], the percent of InsP3R1 pulled down relative to UPA-DD with E35a amounted to 30%.
In assay [2], “type 1 inositol trisphosphate receptor (InsP3R1), endogenous, mouse cerebellum (from UniProt P11881 1-2749) (natural protein)” returned a percent reduction of co-precipitated InsP3R1 against WT of 77%.
